Biological target: recombinant human MCP-1 N1pE (human MCP-1 with an N-terminal pyroglutamate)

B1: recombinant human dipeptidyl peptidase 4 (protein)
chain: NKGTDDATADSRKTYTLTDYLKNTYRLKLYSLRWISDHEYLYKQENNILVFNAEYGNSSVFLENSTFDEFGHSINDYSISPDGQFILLEYNYVKQWRHSYTASYDIYDLNKRQLITEERIPNNTQWVTWSPVGHKLAYVWNNDIYVKIEPNLPSYRITWTGKEDIIYNGITDWVYEEEVFSAYSALWWSPNGTFLAYAQFNDTEVPLIEYSFYSDESLQYPKTVRVPYPKAGAVNPTVKFFVVNTDSLSSVTNATSIQITAPASMLIGDHYLCDVTWATQERISLQWLRRIQNYSVMDICDYDESSGRWNCLVARQHIEMSTTGWVGRFRPSEPHFTLDGNSFYKIISNEEGYRHICYFQIDKKDCTFITKGTWEVIGIEALTSDYLYYISNEYKGMPGGRNLYKIQLSDYTKVTCLSCELNPERCQYYSVSFSKEAKYYQLRCSGPGLPLYTLHSSVNDKGLRVLEDNSALDKMLQNVQMPSKKLDFIILNETKFWYQMILPPHFDKSKKYPLLLDVYAGPCSQKADTVFRLNWATYLASTENIIVASFDGRGSGYQGDKIMHAINRRLGTFEVEDQIEAARQFSKMGFVDNKRIAIWGWSYGGYVTSMVLGSGSGVFKCGIAVAPVSRWEYYDSVYTERYMGLPTPEDNLDHYRNSTVMSRAENFKQVEYLLIHGTADDNVHFQQSAQISKALVDVGVDFQAMWYTDEDHGIASSTAHQHIYTHMSHFIKQCFSLP
N-terminal cleavage, Maldi-TOF mass spectrometry: MCP-1 is protected by a N-terminal pGlu-residue, which confers resistance against N-terminal cleavage by aminopeptidases, e.g. DP4

— patent publication US20110212853
